Target: herpes virus entry mediator (HVEM) (human (endogenous in monocyte‐derived macrophages)) (UniProt Q92956)
Chain of UniProt Q92956 (Q92956 39-283): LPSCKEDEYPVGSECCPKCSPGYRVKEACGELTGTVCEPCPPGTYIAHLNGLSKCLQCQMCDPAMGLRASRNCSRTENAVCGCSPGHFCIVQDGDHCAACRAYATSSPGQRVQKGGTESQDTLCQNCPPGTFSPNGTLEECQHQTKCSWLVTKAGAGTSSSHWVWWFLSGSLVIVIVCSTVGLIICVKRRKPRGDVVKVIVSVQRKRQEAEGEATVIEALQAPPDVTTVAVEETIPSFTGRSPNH

Row | Substance | decrease of staurosporin-induced caspase-3 activity in primary macrophages exposed before to CyPB, against staurosporin alone [%] | decrease of staurosporin-induced caspase-3 activity in primary macrophages exposed before to HSV-1 gD, against staurosporin alone [%]
1 | recombinant human cyclophilin B (from UniProt P23284 34-216) (natural protein) | 75 | 
2 | recombinant His‐tagged HSV‐1 gD (glycoprotein D of herpes simplex virus‐1) (from UniProt Q69091 26-394) (natural protein) |  | 75
